According to publication PMC4137956:

Experiments:
Assay in all cases: SPR; biotinylated SIRPα variants bound to streptavidin immobilised on a BIAcore CM5 chip, BIAcore 3000, 37°; dilutions of monomeric recombinant CD47 extracellular domain passed over; affinity from equilibrium binding
[1] = target: NOD mouse SIRPα + SE mutant, three extracellular IgSF domains (3d) (mouse)
[2] = target: NOD mouse SIRPα, N-terminal domain (d1), wild type (mouse)
[3] = target: NOD mouse SIRPα + SE mutant, N-terminal domain (d1) (mouse)
[4] = target: human SIRPα V2, three extracellular IgSF domains (3d) (human) (UniProt P78324)

Sequence of human CD47 IgSF domain, monomeric recombinant extracellular domain (Q08722 19-136): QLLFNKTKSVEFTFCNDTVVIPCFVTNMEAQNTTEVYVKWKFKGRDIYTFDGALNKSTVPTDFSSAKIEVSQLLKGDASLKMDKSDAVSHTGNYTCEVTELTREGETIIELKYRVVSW
Sequence of mouse CD47 IgSF domain, monomeric recombinant extracellular domain (Q61735 19-139): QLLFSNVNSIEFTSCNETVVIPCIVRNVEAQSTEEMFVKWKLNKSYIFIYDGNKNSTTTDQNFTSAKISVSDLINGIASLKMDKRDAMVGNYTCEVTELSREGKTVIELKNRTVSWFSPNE
Sequence of NOD mouse SIRPα, N-terminal domain (d1), wild type (mouse) (P97797 1-148): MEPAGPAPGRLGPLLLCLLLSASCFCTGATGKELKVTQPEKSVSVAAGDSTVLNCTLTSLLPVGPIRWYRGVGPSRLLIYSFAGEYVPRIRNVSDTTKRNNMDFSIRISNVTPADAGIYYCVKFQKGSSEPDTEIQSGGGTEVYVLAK

Substance | Kd [1] [µM] | Kd [2] [µM] | Kd [3] [µM] | Kd [4] [µM]
mouse CD47 IgSF domain, monomeric recombinant extracellular domain (from UniProt Q61735 19-139) (domain or fragment) | 8.6 | 4.7 | 11.8 | > 30
human CD47 IgSF domain, monomeric recombinant extracellular domain (from UniProt Q08722-1 19-136) (domain or fragment) | 7.6 | 0.08 | 9.4 | 0.6
